Data: patent publication US11045456

Tests used:
p65 mutant S536A = p65 mutant S536A (UniProt Q04206)
[1] = molecular target: p65 phosphorylation-deficient mutant S276A (UniProt Q04206)
[2] = molecular target: nuclear factor-κB (NF-κB) p65 subunit, human, wild type (UniProt Q04206)
Sequence of nuclear factor-κB (NF-κB) p65 subunit, human, wild type (Q04206 whole entry): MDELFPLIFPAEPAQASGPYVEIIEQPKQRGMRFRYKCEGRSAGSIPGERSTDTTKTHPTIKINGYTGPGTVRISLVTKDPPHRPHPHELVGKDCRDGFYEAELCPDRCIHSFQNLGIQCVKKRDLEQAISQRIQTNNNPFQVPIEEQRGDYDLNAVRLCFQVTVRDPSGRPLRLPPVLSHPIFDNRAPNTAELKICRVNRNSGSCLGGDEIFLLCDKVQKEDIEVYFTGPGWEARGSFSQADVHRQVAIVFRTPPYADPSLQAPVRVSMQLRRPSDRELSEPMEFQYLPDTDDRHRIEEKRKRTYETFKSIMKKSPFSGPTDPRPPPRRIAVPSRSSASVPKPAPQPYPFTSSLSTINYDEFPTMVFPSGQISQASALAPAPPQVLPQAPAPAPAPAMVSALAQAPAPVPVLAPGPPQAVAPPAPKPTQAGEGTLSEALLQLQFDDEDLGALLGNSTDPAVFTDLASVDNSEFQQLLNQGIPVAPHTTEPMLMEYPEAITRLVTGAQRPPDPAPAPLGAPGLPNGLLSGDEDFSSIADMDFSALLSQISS

Sequence of p65 phosphorylation-deficient mutant S276A (Q04206 whole entry S276A): as the sequence (Q04206 whole entry) above, with S276A counted along it
Sequence of p65 mutant S536A (Q04206 whole entry S536A): as the sequence (Q04206 whole entry) above, with S536A counted along it

Substance | intensity ratio of PKA-Cβ-induced phosphorylation (Phos-tag PAGE) (p65 mutant S536A) | intensity ratio of PKA-Cβ-induced phosphorylation (Phos-tag PAGE) [1] | NF-κB promoter activity [2] | phosphorylation of p65 (Phos-tag PAGE) [2] | NF-κB promoter activity [1]
protein kinase A catalytic subunit β (PKA-Cβ), human | The intensity ratio of PKA-Cβ-induced phosphorylation was decreased in S276A- and S536A-transfected cells compared to the wild-type p65-transfected cells | The intensity ratio of PKA-Cβ-induced phosphorylation was decreased in S276A- and S536A-transfected cells compared to the wild-type p65-transfected cells |  |  | 
PKA-Cβ1, human |  |  | Co-transfection with PKA-Cβ1 significantly enhanced the p65-induced NF-κB promoter activity | the overexpression of PKA-Cβ1, the major subtype of Cβ in BEAS-2B cells, induced the phosphorylation of p65, which was inhibited by H89 | which was abrogated by co-expressing the S276A mutant of p65
